Assay results reported in publication PMC9482650, “Quantitative fragmentomics allow affinity mapping of interactomes” (Nature Communications, 2022).

Experiments:
Experiment in all cases: holdup assay
Set-up in all cases: key: below the threshold = too weak to quantify, mostly under pKd 3.1 to 4
ARHGEF12, Q9NZN5-2 = target: ARHGEF12, Q9NZN5-2
GORASP1, Q9BQQ3 = target: GORASP1, Q9BQQ3
DLG3_3, Q92796 = target: T1, DLG3_3, Q92796
T1 sequence (Q92796 374-475, limits assumed, looked up): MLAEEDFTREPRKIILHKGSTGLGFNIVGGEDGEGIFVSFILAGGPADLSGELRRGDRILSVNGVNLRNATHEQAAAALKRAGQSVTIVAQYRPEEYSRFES

DVL3, Q92997 = target: T2, DVL3, Q92997
T2 sequence (Q92997 244-331, limits assumed, looked up): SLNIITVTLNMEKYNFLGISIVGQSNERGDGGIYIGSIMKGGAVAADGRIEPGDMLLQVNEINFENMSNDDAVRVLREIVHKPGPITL

PCLO, Q9Y6V0 = target: T3, PCLO, Q9Y6V0
T3 sequence (Q9Y6V0 4491-4600, limits assumed, looked up): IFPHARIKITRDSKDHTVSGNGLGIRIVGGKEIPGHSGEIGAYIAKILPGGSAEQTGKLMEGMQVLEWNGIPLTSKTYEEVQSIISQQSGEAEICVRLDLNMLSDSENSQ

MAST1, Q9Y2H9 = target: MAST1, Q9Y2H9
Chain of MAST1, Q9Y2H9 (Q9Y2H9 962-1065): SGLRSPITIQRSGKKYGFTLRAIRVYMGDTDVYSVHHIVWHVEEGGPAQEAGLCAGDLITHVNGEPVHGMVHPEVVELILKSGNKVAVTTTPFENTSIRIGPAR

DLG2_3, Q15700 = target: DLG2_3, Q15700
MAGI2_5, Q86UL8 = target: MAGI2_5, Q86UL8
Chain of MAGI2_5, Q86UL8 (Q86UL8 915-1017): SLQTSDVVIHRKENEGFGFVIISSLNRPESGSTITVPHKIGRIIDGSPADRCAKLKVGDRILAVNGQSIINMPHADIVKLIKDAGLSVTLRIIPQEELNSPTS

MPDZ_10, O75970 = target: T4, MPDZ_10, O75970
T4 sequence (O75970 1624-1722, limits assumed, looked up): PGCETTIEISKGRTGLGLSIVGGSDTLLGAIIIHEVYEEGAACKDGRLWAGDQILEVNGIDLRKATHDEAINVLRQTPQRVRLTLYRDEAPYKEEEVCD

FRMPD3, Q5JV73 = target: FRMPD3, Q5JV73
Chain of FRMPD3, Q5JV73 (Q5JV73 12-100): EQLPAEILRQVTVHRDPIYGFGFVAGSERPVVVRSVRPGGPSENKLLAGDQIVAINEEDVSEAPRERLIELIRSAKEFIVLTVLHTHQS

GRIP1_4, Q9Y3R0 = target: T5, GRIP1_4, Q9Y3R0
T5 sequence (Q9Y3R0 467-571, limits assumed, looked up): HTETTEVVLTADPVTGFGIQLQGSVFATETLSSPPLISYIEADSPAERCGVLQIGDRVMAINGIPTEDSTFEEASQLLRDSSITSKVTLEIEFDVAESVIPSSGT

NHERF4_4, Q86UT5 = target: NHERF4_4, Q86UT5
Chain of NHERF4_4, Q86UT5 (Q86UT5 464-550): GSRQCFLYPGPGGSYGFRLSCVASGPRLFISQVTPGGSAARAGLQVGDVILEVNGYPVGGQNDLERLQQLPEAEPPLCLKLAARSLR

GRIP1_5, Q9Y3R0 = target: T6, GRIP1_5, Q9Y3R0
T6 sequence (Q9Y3R0 568-668, limits assumed, looked up): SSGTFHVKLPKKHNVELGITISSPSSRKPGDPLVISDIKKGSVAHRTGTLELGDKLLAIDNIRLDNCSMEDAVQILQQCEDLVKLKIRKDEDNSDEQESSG

NHERF2_2, Q15599 = target: NHERF2_2, Q15599
Chain of NHERF2_2, Q15599 (Q15599 142-238): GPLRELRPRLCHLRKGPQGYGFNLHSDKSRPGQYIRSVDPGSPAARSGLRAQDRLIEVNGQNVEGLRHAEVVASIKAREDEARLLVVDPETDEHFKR

PARD3B_1, Q8TEW8 = target: T7, PARD3B_1, Q8TEW8
T7 sequence (Q8TEW8 196-299, limits assumed, looked up): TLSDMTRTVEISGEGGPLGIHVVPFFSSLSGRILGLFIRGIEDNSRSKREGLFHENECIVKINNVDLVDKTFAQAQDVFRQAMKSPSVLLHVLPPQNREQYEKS

LAP2, Q96RT1 = target: LAP2, Q96RT1
Chain of LAP2, Q96RT1 (Q96RT1 other isoform, or with tags, fused parts or gaps): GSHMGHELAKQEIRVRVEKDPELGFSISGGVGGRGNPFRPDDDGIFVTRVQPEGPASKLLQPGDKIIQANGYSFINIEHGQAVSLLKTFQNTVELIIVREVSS

PDZD7_3, Q9H5P4 = target: T8, PDZD7_3, Q9H5P4
T8 sequence (Q9H5P4 857-944, limits assumed, looked up): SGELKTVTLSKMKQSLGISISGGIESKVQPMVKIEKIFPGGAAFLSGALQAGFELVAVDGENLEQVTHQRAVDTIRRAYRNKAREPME

APBA2_2, Q99767 = target: T9, APBA2_2, Q99767
T9 sequence (Q99767 654-744, limits assumed, looked up): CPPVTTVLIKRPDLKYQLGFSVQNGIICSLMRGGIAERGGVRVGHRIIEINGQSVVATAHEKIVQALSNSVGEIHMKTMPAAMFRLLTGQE

APBA1_2, Q02410 = target: T10, APBA1_2, Q02410
T10 sequence (Q02410 742-832, limits assumed, looked up): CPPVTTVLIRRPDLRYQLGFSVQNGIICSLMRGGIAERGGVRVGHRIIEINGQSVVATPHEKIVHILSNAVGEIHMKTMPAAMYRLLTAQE

MPDZ_12, O75970 = target: T11, MPDZ_12, O75970
T11 sequence (O75970 1857-1958, limits assumed, looked up): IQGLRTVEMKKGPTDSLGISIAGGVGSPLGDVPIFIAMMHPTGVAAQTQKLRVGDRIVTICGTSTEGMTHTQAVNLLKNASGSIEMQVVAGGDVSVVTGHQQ

Inadl_2, Q8NI35 = target: Inadl_2, Q8NI35
Chain of Inadl_2, Q8NI35 (Q8NI35 238-335): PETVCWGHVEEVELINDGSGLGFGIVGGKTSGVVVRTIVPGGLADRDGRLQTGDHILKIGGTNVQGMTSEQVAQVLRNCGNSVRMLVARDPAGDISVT

IL16_3, Q14005 = target: IL16_3, Q14005
Chain of IL16_3, Q14005 (Q14005 1107-1207): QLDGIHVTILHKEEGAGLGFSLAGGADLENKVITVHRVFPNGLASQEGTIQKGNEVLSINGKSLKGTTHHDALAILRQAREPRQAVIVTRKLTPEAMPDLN

MAGI2_2, Q86UL8 = target: MAGI2_2, Q86UL8
Chain of MAGI2_2, Q86UL8 (Q86UL8 410-522): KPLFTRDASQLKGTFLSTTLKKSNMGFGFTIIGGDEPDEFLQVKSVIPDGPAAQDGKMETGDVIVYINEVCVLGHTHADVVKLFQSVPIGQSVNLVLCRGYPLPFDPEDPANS

Inadl_1, Q8NI35 = target: Inadl_1, Q8NI35
Chain of Inadl_1, Q8NI35 (Q8NI35 113-229): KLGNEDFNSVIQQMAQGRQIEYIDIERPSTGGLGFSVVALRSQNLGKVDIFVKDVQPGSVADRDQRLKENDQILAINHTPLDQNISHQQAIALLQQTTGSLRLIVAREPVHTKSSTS

LIMK2, P53671 = target: LIMK2, P53671
Chain of LIMK2, P53671 (P53671 143-248): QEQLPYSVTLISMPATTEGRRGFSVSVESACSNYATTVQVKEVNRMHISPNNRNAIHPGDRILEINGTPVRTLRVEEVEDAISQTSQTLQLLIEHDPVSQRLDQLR

GRASP, Q7Z6J2 = target: GRASP, Q7Z6J2
Chain of GRASP, Q7Z6J2 (Q7Z6J2 96-193): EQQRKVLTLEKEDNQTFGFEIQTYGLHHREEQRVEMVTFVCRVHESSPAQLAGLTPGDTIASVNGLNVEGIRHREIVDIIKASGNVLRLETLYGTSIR

NOS1, P29475 = target: NOS1, P29475
Chain of NOS1, P29475 (P29475 9-101): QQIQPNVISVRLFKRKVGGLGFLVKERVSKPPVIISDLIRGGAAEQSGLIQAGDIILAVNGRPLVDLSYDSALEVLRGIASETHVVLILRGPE

[1] = plain residues with an end cap or a label only (N-terminal biotin on a linker: ttds)
[2] = plain residues with an end cap or a label only (N-terminal biotin on a linker: ahx)

Chain of ARHGEF12, Q9NZN5-2 (Q9NZN5 other isoform, or with tags, fused parts or gaps): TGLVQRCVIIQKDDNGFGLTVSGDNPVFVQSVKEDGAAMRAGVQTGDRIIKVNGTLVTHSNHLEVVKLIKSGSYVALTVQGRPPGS
Chain of GORASP1, Q9BQQ3 (Q9BQQ3 1-208): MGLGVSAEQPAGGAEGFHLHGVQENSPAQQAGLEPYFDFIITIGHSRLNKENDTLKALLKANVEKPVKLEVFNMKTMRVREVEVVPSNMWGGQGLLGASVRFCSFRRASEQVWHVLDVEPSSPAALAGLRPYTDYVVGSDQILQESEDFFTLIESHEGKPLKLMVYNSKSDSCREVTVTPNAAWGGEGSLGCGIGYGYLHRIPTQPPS

Binder: QSARYRDTEL [TJP2, Q9UDY2]
- pKd (ARHGEF12, Q9NZN5-2; [1]): 4.27
- pKd (GORASP1, Q9BQQ3; [1]): below the threshold
- pKd (DLG3_3, Q92796; [1]): below the threshold
- pKd (DVL3, Q92997; [1]): below the threshold
- pKd (PCLO, Q9Y6V0; [1]): below the threshold
- pKd (MAST1, Q9Y2H9; [1]): 4.26
- pKd (DLG2_3, Q15700; [1]): 3.8
- pKd (MAGI2_5, Q86UL8; [1]): 3.48
- pKd (MPDZ_10, O75970; [1]): below the threshold
- pKd (FRMPD3, Q5JV73; [1]): below the threshold
- pKd (GRIP1_4, Q9Y3R0; [1]): below the threshold
- pKd (NHERF4_4, Q86UT5; [1]): 3.47
- pKd (GRIP1_5, Q9Y3R0; [1]): below the threshold
- pKd (NHERF2_2, Q15599; [1]): 4.12
- pKd (PARD3B_1, Q8TEW8; [1]): below the threshold
- pKd (LAP2, Q96RT1; [1]): below the threshold
- pKd (PDZD7_3, Q9H5P4; [1]): 3.69
- pKd (APBA2_2, Q99767; [1]): below the threshold
- pKd (APBA1_2, Q02410; [1]): below the threshold
- pKd (MPDZ_12, O75970; [1]): below the threshold
- pKd (Inadl_2, Q8NI35; [1]): below the threshold
- pKd (IL16_3, Q14005; [1]): below the threshold
- pKd (MAGI2_2, Q86UL8; [1]): below the threshold
- pKd (Inadl_1, Q8NI35; [1]): below the threshold
- pKd (LIMK2, P53671; [1]): below the threshold
- pKd (GRASP, Q7Z6J2; [1]): below the threshold
- pKd (NOS1, P29475; [1]): 3.75

Binder: TEAKLTETNA [MYO18A, Q92614]
- pKd (ARHGEF12, Q9NZN5-2; [2]): below the threshold
- pKd (GORASP1, Q9BQQ3; [2]): below the threshold
- pKd (DLG3_3, Q92796; [2]): below the threshold
- pKd (DVL3, Q92997; [2]): below the threshold
- pKd (PCLO, Q9Y6V0; [2]): below the threshold
- pKd (MAST1, Q9Y2H9; [2]): below the threshold
- pKd (DLG2_3, Q15700; [2]): below the threshold
- pKd (MAGI2_5, Q86UL8; [2]): below the threshold
- pKd (MPDZ_10, O75970; [2]): below the threshold
- pKd (FRMPD3, Q5JV73; [2]): below the threshold
- pKd (GRIP1_4, Q9Y3R0; [2]): below the threshold
- pKd (NHERF4_4, Q86UT5; [2]): below the threshold
- pKd (GRIP1_5, Q9Y3R0; [2]): below the threshold
- pKd (NHERF2_2, Q15599; [2]): below the threshold
- pKd (PARD3B_1, Q8TEW8; [2]): below the threshold
- pKd (LAP2, Q96RT1; [2]): below the threshold
- pKd (PDZD7_3, Q9H5P4; [2]): below the threshold
- pKd (APBA2_2, Q99767; [2]): below the threshold
- pKd (APBA1_2, Q02410; [2]): below the threshold
- pKd (MPDZ_12, O75970; [2]): below the threshold
- pKd (Inadl_2, Q8NI35; [2]): below the threshold
- pKd (IL16_3, Q14005; [2]): below the threshold
- pKd (MAGI2_2, Q86UL8; [2]): below the threshold
- pKd (Inadl_1, Q8NI35; [2]): below the threshold
- pKd (LIMK2, P53671; [2]): below the threshold
- pKd (GRASP, Q7Z6J2; [2]): below the threshold
- pKd (NOS1, P29475; [2]): below the threshold

Binder: IDNDTESTAL [ARHGAP17, Q68EM7]
- pKd (ARHGEF12, Q9NZN5-2; [1]): 4.77
- pKd (GORASP1, Q9BQQ3; [1]): below the threshold
- pKd (DLG3_3, Q92796; [1]): below the threshold
- pKd (DVL3, Q92997; [1]): below the threshold
- pKd (PCLO, Q9Y6V0; [1]): below the threshold
- pKd (MAST1, Q9Y2H9; [1]): 4.91
- pKd (DLG2_3, Q15700; [1]): below the threshold
- pKd (MAGI2_5, Q86UL8; [1]): 4.47
- pKd (MPDZ_10, O75970; [1]): below the threshold
- pKd (FRMPD3, Q5JV73; [1]): below the threshold
- pKd (GRIP1_4, Q9Y3R0; [1]): below the threshold
- pKd (NHERF4_4, Q86UT5; [1]): below the threshold
- pKd (GRIP1_5, Q9Y3R0; [1]): below the threshold
- pKd (NHERF2_2, Q15599; [1]): 5.24
- pKd (PARD3B_1, Q8TEW8; [1]): 3.93
- pKd (LAP2, Q96RT1; [1]): below the threshold
- pKd (PDZD7_3, Q9H5P4; [1]): 4.25
- pKd (APBA2_2, Q99767; [1]): below the threshold
- pKd (APBA1_2, Q02410; [1]): 3.89
- pKd (MPDZ_12, O75970; [1]): below the threshold
- pKd (Inadl_2, Q8NI35; [1]): below the threshold
- pKd (IL16_3, Q14005; [1]): below the threshold
- pKd (MAGI2_2, Q86UL8; [1]): below the threshold
- pKd (Inadl_1, Q8NI35; [1]): below the threshold
- pKd (LIMK2, P53671; [1]): below the threshold
- pKd (GRASP, Q7Z6J2; [1]): 4.77
- pKd (NOS1, P29475; [1]): 3.95
